The record followed here is the DeepSol protein solubility set.

The data set in a line: soluble on expression in E. coli; label from the status in PepcDB or PDB records.
“MAHHHHHHMRSPASEGDCGVRLRVSWREGKQRALTDELDAKHQSDPYETLQTSDRKVFVSNTAAGAGRLLTDPQVHADDKGFSTYLRERLLVRVLPEGQKCVCGADASNEHVHTCTRLQQNPRTTRHEMISMTFANGLRLCGFQCGMEPRLTEASRRRPDILIVGLDTYAITDVTVTYAGRVTAYVSEESMEEADPLRAARDRLTQKRQKYRHWALANGLDFEPFVMLTNGAIHPAIRRWLRRILGARVLAYAGAQWVAERQ”: the “soluble on expression in E. coli” value is “soluble”.

As to “ASQFFFNQRTHLVSDVIDGAIIASPWNNLARLESDPAIRIVVRRDLNKNNVAVISGGGSGHEPAHVGFIGKGMLTAAVCGDVFASPSVDAVLTAIQAVTGEAGCLLIVKNYTGDRLNFGLAAEKARRLGYNVEMLIVGDDISLPDNKHPRGIAGTILVHKIAGYFAERGYNLATVLREAQYAASNTFSLGVALSSCHLPQETDAAPRHHPGHAELGMGIHGEPGASVIDTQNSAQVVNLMVDKLLAALPETGRLAVMINNLGGVSVAEMAIITRELASSPLHSRIDWLIGPASLVTALDMKGFSLTAIVLEESIEKALLTEVETSNWPTPVPPREITCVVSSHASARVEFQPSANALVAGIVELVTATLSDLETHLNALDAKVGDGDTGSTFAAAAREIASLLHRQQLPLNNLATLFALIGERLTVVMGGSSGVLMSIFFTAAGQKLEQGANVVEALNTGLAQMKFYGGADEGDRTMIDALQPALTSLLAQPKNLQAAFDAAQAGAERTCLSSKANAGRASYLSSESLLGNMDPGAQALAMVFKALAESELG”, the “soluble on expression in E. coli” value is “soluble”.

For “LQASCSDDQEHRLGSLDFYTGVFALEKSRIAEISNRATLELQKMATSGEPMWLRSVETGREILNYDEYLKEFPQAQASSFPGRKTIEASRDAGIVFMDAHKLAQSFMDVGQWKETFACLISKAATVDVIRQGEGPSRIDGAIQLMFGEMQLLTPVVPTREVYFVRSCRQLSPEKWAIVDVSVSVEDSNTEKEASLLKCRKLPSGCIIEDTSNGHSKVTWVEHLDVSASTVQPLFRSLVNTGLAFGARHWVATLQLHCERLVFFMATNVPTKDSLGVTTLAGRKSVLKMAQRMTQSFYRAIAASSYHQWTKITTKTGQDMRVSSRKNV”, the “soluble on expression in E. coli” value is “soluble”.

As to “MPQFASKAEEKNYYERQASLAEFLTWYHQQELPEYEKPSLTVDMVLLCYNKEADQLKVLLIQRKGHPFRNSWALPGGFVNRNESTEDSVLRETKEETGVVISQENIEQLHSFSRPDRDPRGWVVTVSYLAFIGEEPLIAGDDAKEVHWFNLERHGQHITLSHEDVEITLDLKTAASLGKDTLAFDHSEIIIKAFNRVVDKMEHEPQVLQVLGKDFTITEARKVFAKFLGVDYRSIDHSNFKKAMTQYFEELGERPVGIGRPSKIYQLKTTTGF”, the “soluble on expression in E. coli” value is listed as “soluble”.

As to “MAHHHHHHMPMILNEGWNIIQINLQEYTEKAFRTKYMETMDIQINASIRIRCIYFCDKLYNNDELKDEYKIFSKKKEKIKYTPPQCLNKPLKKMTIKSIITEGVSKGGENLPTEVEANKATTENEILEDSSTSGNSKKTDVEPTSQKNLQSIDMTEGIELYEESTDDPFFDEKNDGEGTPLAQVIGGEELLVGGEESTEVANNMTMDLTENTVTGTMNGPMKDQQDAEEAEHLAHIKTLEMDDTNVLYEDVNYETYNNDDH”, the “soluble on expression in E. coli” value is listed as “soluble”.

Consider “MLKVKKEVLEKMIKQAERDYPYETCGLLIGKSEGGIRIAYEAFETPNANPDRKHDRYEIAPKDYMRAEDYAISKGMEIVGVYHSHPDHPDRPSQFDLQRAFPDLSYIIFSVQKGKVASYRSWELKGDKFEEEEVEVFE”, for which the “soluble on expression in E. coli” value was “not soluble”.

As for “GSLSLIRKKGFYKQDVNKTAWELPKTYVSPTHVGSGAYGSVCSAIDKRSGEKVAIKKLSRPFQSEIFAKRAYRELLLLKHMQHENVIGLLDVFTPASSLRNFYDFYLVMPFMQTDLQKIMGMEFSEEKIQYLVYQMLKGLKYIHSAGVVHRDLKPGNLAVNEDCELKILDFGLARHADAEMTGYVVTRWYRAPEVILSWMHYNQTVDIWSVGCIMAEMLTGKTLFKGKDYLDQLTQILKVTGVPGTEFVQKLNDKAAKSYIQSLPQTPRKDFTQLFPRASPQAADLLEKMLELDVDKRLTAAQALTHPFFEPFRDPEEETEAQQPFDDSLEHEKLTVDEWKQHIYKEIVNFSPIARKDSRV”, the “soluble on expression in E. coli” value is listed as “soluble”.
